Measurements taken from patent US20230257453A1 (published 2023).
Where a chain is given by its changes, count along the chain named.

T1: denatured human collagen type III (UniProt P02461 154-1221)
T1 chain: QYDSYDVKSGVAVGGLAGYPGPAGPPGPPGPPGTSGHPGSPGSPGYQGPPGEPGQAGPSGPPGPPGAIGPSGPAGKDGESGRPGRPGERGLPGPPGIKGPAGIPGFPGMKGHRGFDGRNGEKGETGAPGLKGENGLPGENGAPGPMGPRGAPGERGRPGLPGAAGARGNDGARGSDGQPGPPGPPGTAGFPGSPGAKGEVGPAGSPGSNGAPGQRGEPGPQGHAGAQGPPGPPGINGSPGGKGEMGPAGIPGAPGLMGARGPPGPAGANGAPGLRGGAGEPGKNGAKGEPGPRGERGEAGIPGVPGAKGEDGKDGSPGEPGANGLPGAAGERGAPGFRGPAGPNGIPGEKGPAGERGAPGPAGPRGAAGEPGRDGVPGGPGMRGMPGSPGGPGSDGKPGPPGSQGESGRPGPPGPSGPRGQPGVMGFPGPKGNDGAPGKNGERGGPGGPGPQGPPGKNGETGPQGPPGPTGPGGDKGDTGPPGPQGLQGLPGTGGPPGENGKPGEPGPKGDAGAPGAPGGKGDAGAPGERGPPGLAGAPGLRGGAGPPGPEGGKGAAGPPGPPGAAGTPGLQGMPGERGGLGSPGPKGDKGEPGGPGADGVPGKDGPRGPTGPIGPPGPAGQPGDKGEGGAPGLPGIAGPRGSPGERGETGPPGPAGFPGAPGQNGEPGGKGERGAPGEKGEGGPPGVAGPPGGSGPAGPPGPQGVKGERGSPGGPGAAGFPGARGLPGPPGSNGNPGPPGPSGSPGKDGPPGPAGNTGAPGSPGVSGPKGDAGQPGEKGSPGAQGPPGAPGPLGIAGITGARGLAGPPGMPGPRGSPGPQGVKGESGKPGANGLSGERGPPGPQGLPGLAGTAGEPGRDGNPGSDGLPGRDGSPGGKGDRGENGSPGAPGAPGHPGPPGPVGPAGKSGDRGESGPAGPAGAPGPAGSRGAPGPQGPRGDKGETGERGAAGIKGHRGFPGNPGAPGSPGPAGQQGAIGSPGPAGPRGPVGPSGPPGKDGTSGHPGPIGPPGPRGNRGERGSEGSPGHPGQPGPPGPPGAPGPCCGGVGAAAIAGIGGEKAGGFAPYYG

B1: P27122713 (antibody)
heavy: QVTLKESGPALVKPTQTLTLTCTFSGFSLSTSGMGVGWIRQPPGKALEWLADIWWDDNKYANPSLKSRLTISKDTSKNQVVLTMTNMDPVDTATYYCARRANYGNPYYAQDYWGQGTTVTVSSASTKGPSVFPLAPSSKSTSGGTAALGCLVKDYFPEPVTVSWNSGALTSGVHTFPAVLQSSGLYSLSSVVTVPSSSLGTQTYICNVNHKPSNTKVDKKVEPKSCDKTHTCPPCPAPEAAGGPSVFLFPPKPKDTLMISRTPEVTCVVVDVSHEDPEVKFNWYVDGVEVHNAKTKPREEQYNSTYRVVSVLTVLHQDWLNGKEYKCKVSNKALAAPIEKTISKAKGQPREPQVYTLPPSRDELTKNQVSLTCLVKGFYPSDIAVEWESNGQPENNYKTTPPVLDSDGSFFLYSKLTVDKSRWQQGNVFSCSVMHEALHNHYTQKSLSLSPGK
light: DIVMTQTPLSLPVTPGEPASISCRSSQSIVHSNGNTYLEWYLQKPGQSPQLLIYKVSNRFSGVPDRFSGSGSGTDFTLKISRVEAEDVGVYYCFQGSHVPWTFGQGTKVEIKRTVAAPSVFIFPPSDEQLKSGTASVVCLLNNFYPREAKVQWKVDNALQSGNSQESVTEQDSKDSTYSLSSTLTLSKADYEKHKVYACEVTHQGLSSPVTKSFNRGEC
B2: P27152716 (antibody)
heavy: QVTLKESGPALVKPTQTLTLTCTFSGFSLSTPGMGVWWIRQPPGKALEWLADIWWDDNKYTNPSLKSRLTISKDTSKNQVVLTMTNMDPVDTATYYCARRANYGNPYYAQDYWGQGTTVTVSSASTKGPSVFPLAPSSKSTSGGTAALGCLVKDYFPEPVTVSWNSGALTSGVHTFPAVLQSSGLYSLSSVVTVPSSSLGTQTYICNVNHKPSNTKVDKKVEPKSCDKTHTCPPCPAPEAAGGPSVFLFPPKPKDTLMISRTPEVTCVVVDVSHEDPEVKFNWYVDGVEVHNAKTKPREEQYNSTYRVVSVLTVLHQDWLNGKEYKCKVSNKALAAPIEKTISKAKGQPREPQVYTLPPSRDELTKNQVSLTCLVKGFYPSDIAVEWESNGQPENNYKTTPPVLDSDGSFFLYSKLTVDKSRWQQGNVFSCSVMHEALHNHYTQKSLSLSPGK
light: B1 light with H31S, N33W
B3: P27152798 (antibody)
heavy: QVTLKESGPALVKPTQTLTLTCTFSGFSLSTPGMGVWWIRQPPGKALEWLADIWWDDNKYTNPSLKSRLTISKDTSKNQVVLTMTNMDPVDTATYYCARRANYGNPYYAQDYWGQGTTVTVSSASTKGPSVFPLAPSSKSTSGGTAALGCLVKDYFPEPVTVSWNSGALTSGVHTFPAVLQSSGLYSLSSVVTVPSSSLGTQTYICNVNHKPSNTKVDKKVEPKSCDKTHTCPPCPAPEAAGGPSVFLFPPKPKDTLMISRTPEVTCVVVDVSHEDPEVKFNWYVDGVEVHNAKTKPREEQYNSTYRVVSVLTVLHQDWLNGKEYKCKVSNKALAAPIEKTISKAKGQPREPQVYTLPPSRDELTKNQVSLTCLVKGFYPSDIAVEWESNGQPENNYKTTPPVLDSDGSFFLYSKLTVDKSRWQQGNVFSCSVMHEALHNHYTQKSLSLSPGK
light: B1 light with G34A
B4: P27152714 (antibody, V domains shown)
VH: QVTLKESGPALVKPTQTLTLTCTFSGFSLSTPGMGVWWIRQPPGKALEWLADIWWDDNKYTNPSLKSRLTISKDTSKNQVVLTMTNMDPVDTATYYCARRANYGNPYYAQDYWGQGTTVTVSS
VL: DIVMTQTPLSLPVTPGEPASISCRSSQSIVHSQGNTYLEWYLQKPGQSPQLLIYKVSNRFSGVPDRFSGSGSGTDFTLKISRVEAEDVGVYYCFQGSHVPWTFGQGTKVEIKR
B5: P27122716 (antibody)
chain 1: not shown
chain 2: B1 light with H31S, N33W
B6: P27122714 (antibody)
chain 1: not shown
chain 2: B1 light with N33Q
B7: P27962716 (antibody)
chain 1: not shown
chain 2: B1 light with H31S, N33W
B8: P27582716 (antibody, V domains shown)
VH: EVQLVESGGGLVQPGGSLRLSCAASGFSLSTPGMGVWWIRQAPGKGLEWVADIWWDDNKYTNPSLKSRLTISRDNAKNSLYLQMNSLRAEDTAVYYCARRANYGNPYYAQDYWGQGTTVTVSS
VL: B4 VL with H31S, Q33W
B9: P27602716 (antibody, V domains shown)
VH: B8 VH with I39V, V50L, R73K
VL: B4 VL with H31S, Q33W
B10: P27612716 (antibody, V domains shown)
VH: B8 VH with V50L, R73K
VL: B4 VL with H31S, Q33W
B11: P27642716 (antibody, V domains shown)
VH: B4 VH with A46G
VL: B4 VL with H31S, Q33W
B12: P27662716 (antibody, V domains shown)
VH: B4 VH with P43S, K45E, A46G
VL: B4 VL with H31S, Q33W
B13: P27592716 (antibody, V domains shown)
VH: B8 VH with V50L
VL: B4 VL with H31S, Q33W
B14: P27632716 (antibody, V domains shown)
VH: B4 VH with K45E
VL: B4 VL with H31S, Q33W

Each binder was assayed against denatured mouse collagen IV (mouse, UniProt P02463 28-1669; P08122 26-1707) (assay: ELISA).
An EC50 of 487 nM was found for B1 in this work. An EC50 of 229 nM was found for B2 in this work. An EC50 of 197 nM was found for B3 in this work.

These binders were tested against T2, denatured human collagen type V (UniProt P20908 38-1605) (assay: ELISA).
T2 sequence (P20908 38-1605): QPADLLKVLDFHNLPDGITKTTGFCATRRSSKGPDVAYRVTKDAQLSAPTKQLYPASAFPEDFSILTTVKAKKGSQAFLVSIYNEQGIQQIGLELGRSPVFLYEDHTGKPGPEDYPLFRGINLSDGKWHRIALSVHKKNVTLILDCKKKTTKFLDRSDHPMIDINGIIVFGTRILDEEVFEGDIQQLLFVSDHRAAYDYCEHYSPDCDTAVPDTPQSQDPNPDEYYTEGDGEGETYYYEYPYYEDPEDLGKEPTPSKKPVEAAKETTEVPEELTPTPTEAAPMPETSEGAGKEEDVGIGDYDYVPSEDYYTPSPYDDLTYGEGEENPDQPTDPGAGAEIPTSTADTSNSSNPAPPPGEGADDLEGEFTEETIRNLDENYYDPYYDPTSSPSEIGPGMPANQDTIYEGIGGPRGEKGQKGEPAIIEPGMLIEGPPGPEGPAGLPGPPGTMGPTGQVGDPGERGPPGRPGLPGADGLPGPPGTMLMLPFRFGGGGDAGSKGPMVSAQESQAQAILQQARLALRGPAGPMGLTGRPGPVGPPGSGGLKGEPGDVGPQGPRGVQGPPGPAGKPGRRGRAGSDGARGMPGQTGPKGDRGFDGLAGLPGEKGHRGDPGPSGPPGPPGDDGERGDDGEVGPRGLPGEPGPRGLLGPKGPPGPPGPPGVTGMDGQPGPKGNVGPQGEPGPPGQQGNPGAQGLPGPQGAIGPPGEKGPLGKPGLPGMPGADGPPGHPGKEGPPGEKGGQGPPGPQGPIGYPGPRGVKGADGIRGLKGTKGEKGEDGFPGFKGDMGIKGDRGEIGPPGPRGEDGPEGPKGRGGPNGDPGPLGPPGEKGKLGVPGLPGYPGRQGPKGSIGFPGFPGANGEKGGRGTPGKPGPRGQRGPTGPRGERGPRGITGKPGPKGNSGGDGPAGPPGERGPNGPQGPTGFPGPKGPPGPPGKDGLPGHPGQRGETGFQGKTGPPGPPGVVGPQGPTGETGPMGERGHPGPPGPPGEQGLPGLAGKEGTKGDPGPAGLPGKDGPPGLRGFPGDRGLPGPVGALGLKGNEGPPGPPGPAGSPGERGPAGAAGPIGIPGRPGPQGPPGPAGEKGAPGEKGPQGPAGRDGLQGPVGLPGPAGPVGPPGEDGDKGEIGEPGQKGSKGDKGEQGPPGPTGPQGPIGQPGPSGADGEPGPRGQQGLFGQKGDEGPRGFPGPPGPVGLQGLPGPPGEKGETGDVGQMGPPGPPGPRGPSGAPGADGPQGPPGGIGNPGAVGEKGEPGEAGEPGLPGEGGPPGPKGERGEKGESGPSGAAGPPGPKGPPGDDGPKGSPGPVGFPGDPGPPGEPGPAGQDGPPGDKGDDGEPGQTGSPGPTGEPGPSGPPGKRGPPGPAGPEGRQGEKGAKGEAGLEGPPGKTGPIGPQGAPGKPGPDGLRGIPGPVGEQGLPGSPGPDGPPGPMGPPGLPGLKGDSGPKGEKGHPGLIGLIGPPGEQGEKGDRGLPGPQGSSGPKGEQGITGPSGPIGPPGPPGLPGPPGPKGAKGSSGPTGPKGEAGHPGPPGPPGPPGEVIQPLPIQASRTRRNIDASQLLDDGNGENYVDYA
An EC50 of about 259 nM was found for B1 in this work. An EC50 of 15.2 nM was found for B2 in this work. An EC50 of 86.2 nM was found for B3 in this work.

Each binder was assayed against denatured mouse collagen I (mouse, UniProt P11087 152-1207; Q01149 86-1125) (assay: ELISA).
An EC50 of 10.2 nM was found for B2 in this work.

Molecular target: T1, denatured human collagen type III
Experiment: ELISA
An EC50 of 32.9 nM was found for B1 in this work. An EC50 of 9.63 nM was found for B2 in this work. An EC50 of 59.6 nM was found for B3 in this work.

Each binder was assayed against T3, denatured human collagen I (UniProt P02452 162-1218; P08123 80-1119) (assay: ELISA).
T3 sequence (P02452 162-1218 A1075T, chain 1 of 2): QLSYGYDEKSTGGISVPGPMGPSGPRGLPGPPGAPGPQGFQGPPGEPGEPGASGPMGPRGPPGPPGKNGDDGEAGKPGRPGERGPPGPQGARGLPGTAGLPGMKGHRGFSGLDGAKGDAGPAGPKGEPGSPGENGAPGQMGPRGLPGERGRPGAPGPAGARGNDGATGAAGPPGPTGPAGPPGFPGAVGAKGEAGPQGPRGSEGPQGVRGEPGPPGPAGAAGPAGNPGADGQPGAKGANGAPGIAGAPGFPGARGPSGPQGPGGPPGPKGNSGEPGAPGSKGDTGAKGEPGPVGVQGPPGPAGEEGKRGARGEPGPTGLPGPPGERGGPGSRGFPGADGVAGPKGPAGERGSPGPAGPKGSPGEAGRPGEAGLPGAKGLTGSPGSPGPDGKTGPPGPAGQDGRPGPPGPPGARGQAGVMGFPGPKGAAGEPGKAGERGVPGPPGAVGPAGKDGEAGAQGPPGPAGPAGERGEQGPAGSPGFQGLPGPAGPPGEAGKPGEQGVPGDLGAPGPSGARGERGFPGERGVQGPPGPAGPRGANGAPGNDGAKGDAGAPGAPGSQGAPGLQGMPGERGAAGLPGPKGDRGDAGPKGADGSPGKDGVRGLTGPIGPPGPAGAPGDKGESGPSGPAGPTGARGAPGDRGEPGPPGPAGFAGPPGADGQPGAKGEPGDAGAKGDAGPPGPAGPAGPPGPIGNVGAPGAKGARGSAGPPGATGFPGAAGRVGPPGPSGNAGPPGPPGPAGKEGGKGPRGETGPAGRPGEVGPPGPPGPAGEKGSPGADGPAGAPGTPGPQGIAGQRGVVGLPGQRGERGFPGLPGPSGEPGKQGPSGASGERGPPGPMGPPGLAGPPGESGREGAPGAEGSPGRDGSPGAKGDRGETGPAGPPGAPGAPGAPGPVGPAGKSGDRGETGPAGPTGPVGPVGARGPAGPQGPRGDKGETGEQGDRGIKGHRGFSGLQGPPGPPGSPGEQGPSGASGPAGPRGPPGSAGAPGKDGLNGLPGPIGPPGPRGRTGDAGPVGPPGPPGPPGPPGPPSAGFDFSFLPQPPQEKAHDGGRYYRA
T3 sequence (P08123 80-1119, chain 2 of 2): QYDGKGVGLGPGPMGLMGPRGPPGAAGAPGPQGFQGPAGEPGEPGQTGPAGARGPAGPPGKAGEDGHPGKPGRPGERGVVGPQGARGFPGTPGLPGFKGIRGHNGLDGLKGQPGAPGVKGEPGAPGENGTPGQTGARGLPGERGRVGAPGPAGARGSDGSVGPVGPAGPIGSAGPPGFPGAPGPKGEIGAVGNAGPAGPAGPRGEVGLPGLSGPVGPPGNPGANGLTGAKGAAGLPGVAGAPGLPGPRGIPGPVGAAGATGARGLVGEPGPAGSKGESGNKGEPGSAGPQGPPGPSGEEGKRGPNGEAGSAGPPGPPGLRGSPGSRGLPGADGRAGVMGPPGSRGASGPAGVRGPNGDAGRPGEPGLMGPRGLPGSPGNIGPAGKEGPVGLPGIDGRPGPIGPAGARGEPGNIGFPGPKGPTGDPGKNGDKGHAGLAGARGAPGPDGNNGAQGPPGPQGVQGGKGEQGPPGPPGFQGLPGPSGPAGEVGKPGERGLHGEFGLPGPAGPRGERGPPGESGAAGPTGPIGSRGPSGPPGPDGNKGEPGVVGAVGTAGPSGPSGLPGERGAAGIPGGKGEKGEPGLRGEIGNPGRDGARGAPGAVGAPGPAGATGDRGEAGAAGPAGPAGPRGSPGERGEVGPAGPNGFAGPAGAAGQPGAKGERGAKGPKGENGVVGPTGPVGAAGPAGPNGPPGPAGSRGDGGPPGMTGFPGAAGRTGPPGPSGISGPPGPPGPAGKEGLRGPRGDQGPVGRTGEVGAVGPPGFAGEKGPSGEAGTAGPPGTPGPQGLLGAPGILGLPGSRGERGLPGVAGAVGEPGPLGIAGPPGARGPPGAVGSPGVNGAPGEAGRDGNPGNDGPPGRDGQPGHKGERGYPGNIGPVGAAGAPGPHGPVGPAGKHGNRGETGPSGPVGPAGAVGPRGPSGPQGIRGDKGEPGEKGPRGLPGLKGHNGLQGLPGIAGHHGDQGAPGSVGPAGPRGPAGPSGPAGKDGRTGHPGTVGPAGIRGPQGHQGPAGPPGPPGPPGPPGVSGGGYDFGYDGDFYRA
An EC50 of 18.5 nM was found for B4 in this work. An EC50 of 59.7 nM was found for B1 in this work. An EC50 of 19 nM was found for B5 in this work. An EC50 of 2.12 nM was found for B2 in this work. An EC50 of 80.8 nM was found for B6 in this work. An EC50 of 76.3 nM was found for B3 in this work.

Molecular target: T2, denatured human collagen type V
Experiment: ELISA
Remark: another data set of the same source
An EC50 of 3.31 nM was found for B7 in this work.

Molecular target: T1, denatured human collagen type III
Experiment: ELISA
Remark: another data set of the same source
An EC50 of 3.94 nM was found for B7 in this work.

What follows are binders tested against T4, denatured human collagen type IV (UniProt P02462 173-1669; P08572 184-1712) (assay: ELISA).
An EC50 of 18.6 nM was found for B7 in this work.

Molecular target: T4, denatured human collagen type IV
Experiment: ELISA
Remark: another data set of the same source
An EC50 of 3.83 nM was found for B8 in this work. An EC50 of 11.9 nM was found for B9 in this work. An EC50 of 6.13 nM was found for B10 in this work. An EC50 of 1.69 nM was found for B11 in this work. An EC50 of 9.77 nM was found for B12 in this work. An EC50 of 1.86 nM was found for B13 in this work. An EC50 of 5.05 nM was found for B14 in this work. An EC50 of 9.97 nM was found for B3 in this work.

Molecular target: T4, denatured human collagen type IV
Experiment: ELISA
Remark: another data set of the same source
An EC50 of 13 nM was found for B4 in this work. An EC50 of 10.4 nM was found for B1 in this work. An EC50 of 125 nM was found for B5 in this work. An EC50 of 1.37 nM was found for B2 in this work. An EC50 of 33.9 nM was found for B6 in this work.

Molecular target: T3, denatured human collagen I
Experiment: ELISA
Remark: another data set of the same source
An EC50 of 9.38 nM was found for B8 in this work. An EC50 of 21.1 nM was found for B9 in this work. An EC50 of 10.9 nM was found for B10 in this work. An EC50 of 2.39 nM was found for B11 in this work. An EC50 of 9.81 nM was found for B12 in this work. An EC50 of 2.44 nM was found for B13 in this work. An EC50 of 3.04 nM was found for B14 in this work.
